Assay results from the DeepSol protein solubility set.

Test: soluble on expression in E. coli; label from the status in PepcDB or PDB records

Sequence | soluble on expression in E. coli
MKLAARVESVSPSMTLIIDAKAKAMKAEGIDVCSFSAGEPDFNTPKHIVEAAKAALEQGKTRYGPAAGEPRLREAIAQKLQRDNGLCYGADNILVTNGGKQSIFNLMLAMIEPGDEVIIPAPFWVSYPEMVKLAEGTPVILPTTVETQFKVSPEQIRQAITPKTKLLVFNTPSNPTGMVYTPDEVRAIAQVAVEAGLWVLSDEIYEKILYDDAQHLSIGAASPEAYERSVVCSGFAKTYAMTGWRVGFLAGPVPLVKAATKIQGHSTSNVCTFAQYGAIAAYENSQDCVQEMLAAFAERRRYMLDALNAMPGLECPKPDGAFYMFPSIAKTGRSSLDFCSELLDQHQVATVPGAAFGADDCIRLSYATDLDTIKRGMERLEKFLHGIL | soluble
HMTMEQFLTSLDMIRSGCAPKFKLKTEDLDRLRVGDFNFPPSQDLMCYTKCVALMAGTVNKKGEFNAPKALAQLPHLVPPEMMEMSRKSVEACRDTHKQFKESCERVYQTAKCFSENADGQFMWP | soluble
MGHHHHHHSHMEFRSVAERICGDIVLSENSGEALRKWRSIFNASQSDLARKLGISPSVISDYESGRRKPGTAFLKKFVCALIELDGERGYQVLSKYRYFLESDHKAVLDIAEYQKTAEPSEFCEVIEGKMLTHFDKAIHGHTVIDSINAILSLNAFDFYRLYGLTSERALIFTRVSTGRSPMVAVRVSNLKPSAVVLHGLEAERVDEMAKKIAEIERIPLVVTEIAIGEIVKRLRRKFA | not soluble
MDTGNNNNLPTLLKCNFPPYGKDYPGGFATGRFSDGRVPSDLIAEKLGLAKTLPAYMNPYLKPEDLLKGVTFASGGTGYDPLTAKIMSVISVWDQLINFKEYISKIKRHFGEEKAKDILEHSFFLVVSSSNDLAHTYLAQTHRYDRTSYANFLADSAVHFVRELHKLGARKIGVFSAVPVGCVPLQRTVFGDKELDGVILYINVYDTLFDMIQHPKKYGFEVADRGCCGKGLLAISYLCNSLNPFTCSNSSAYIFWDSYHPSERAYQVIVDNLLDKYLSKVY | soluble
MSLTTNRTRKAGADSEISDLLKTQSELHGRIAAMAETLGTRQTEMSQTLNQRLDGMSQRLGETLTEQTRSTHENLSRLQERLAVIDAAQGNIQDLAKDVVGLQAILSNKQTRGAFGQARMETLIADALPAGAFQLQPTLSNGYRPDCIIKMPNNAPALVIDAKFPLEAWNAIKADETPETKRAAVQQFRRDMEVHIRDVAEKYLIRGETQDTAFIFVPSESIFADIHQHFEYLVQRAHRARVVIVSPSLLMLSVQVIQSVLKDQRMREQAHLIQGEVALLMDDVRRLDDRTRKLQAHFGLAQKDVDMMLISSDKVLARGQKIEGLDFSPTEKEASHGEIEQTRRFAENRAGAAKLRVVDDEEGHHHHHH | soluble
MQPGGDMSALLAQAQQMQQKLLEAQQQLANSEVHGQAGGGLVKVVVKGSGEVIGVTIDPKVVDPDDIETLQDLIVGAMRDASQQVTKMAQERLGALAGAMRPPAPPAAPPGAPGMPGMPGMPGAPGAPPVPGI | not soluble
MAKARRRRVRDTWKEKKWYVIKSPKLFGENEIGTTPSRDPDFLLKRRVEATMRELTGDFSKQYVKLKFQIDSVAGSEATTRFIGHQVTTDYVRSMIRRGTSRVDAPVIVETKDGYKLKVHPLAITIRRAKSSQQKYMRQSIEEHLREIASEKTFEELVEGIVTGKIASEIYHQAKKIYPLKRVEIIKSRVLEEPALEHHHHHH | soluble
MVTKTITEQRAEVRIFAGNDPAHTATGSSGISSPTPALTPLMLDEATGKLVVWDGQKAGSAVGILVLPLEGTETALTYYKSGTFATEAIHWPESVDEHKKANAFAGSALSHAALP | soluble
MKVISLKKDSFNKGGAVITLLPEDKEDLFTVYQIVDKDDELIFKKKFTSKLDEAGKKKSTDLVKLKIKVISEDFDMKDEYLKYKGVTVTDESGASNVDIPVGKYLSFTLDYVYPFTIIKQNFNKFMQKLLNEACNIEYKSDTAAVVLQEGIAHVCLVTSSSTILKQKIEYSMPKKKRTTDVLKFDEKTEKFYKAIYSAMKKDLNFDKLKTIILCSPGFYAKILMDKIFQYAEEEHNKKILDNKGMFFIAHCSTGYLQGINEVLKNPLYASKLQDTKYSKEIMVMDEFLLHLNKDDDKAWYGEKEVVKAAEYGAISYLLLTDKVLHSDNIAQREEYLKLMDSVESNGGKALVLSTLHSLGEELDQLTGIACILKYPLPDLDEDDGEE | soluble
MGSDKIHHHHHHMILDTAPHISSVGQVKEFFLARQPILDQNQNLIAYELLFRRAGVRAPVSAEDTRGAASIIAHTSELGIENVTGSALGFFNVNSTLLMGDLVNFLPAEKVVFEFPQTDKITPELVRRVAELAKAGYRFALDDVITLSEYIKPLLPFVEIIKIDTSVMTYADLAMLVRQFKQARKVLLADKVETLEQFQNCHELGFDYYQGYYFAKPALLSGKKLATSQLAIMELMTLVARDADTIEIEQRIKKEVSLCLSLLRLVNTPAMGVTKSIHSLSEALMVLGRRQLQRWLQIQIYVGPDPQIQFGSPLLLLAATRGKLLELVAQKLQPANRSMADIAFTVGILSLLDALFGQHMERILRQIVLSEEITEALLYRTGFYGDLLKLAEYLEKPGEAGRLLVPLLARLGLPIEELYPFQLEAFEWSNSLLPTL | not soluble
MSAKGKHVVVIGGGDTGADCITTSVRHGAKSITQFDINREKSNERPDNNPWPLFPIVHTVEDGHKEAAAVYGKDPRAYQVMTTKFVGDAEGHVKEIHTISVETTVHPDGSKTRVEIPGTEKVWPADLVFLAVGFTGPEEQLVRELELETDTRSNIKAEYGKYETSLEGVFAAGDNRRGQSLVVWAIHEGREAARECDKYLMGLEHHHHHH | not soluble
MIQHLSSDTVVIGGGVVGLTIALTVARRHRSVILLDPEEPGSGASYGNAGTIADYAVLPVGTPDVLRQLPSLMFDRNSPLAIRHMALPSLAPWLARFLRQSLPAPARRNAQAIAALLGSATRSWEDLAVEVEGTALLNRRGCLYAYETPQAARAAETDMTFRRTLGVTVELLSAAEFAAMEPSLPPMAGAAYFPKAIFLSDPGRMVALIAEAARKAGVQIVKARATGLERRVDGVIVSGRALQIHGRRAVIAAGAHSRALALCAGDRVPLDTERGYHVEWDMAQPPLTRPTCPTARGFYLCPMAGRLRVAGTVELGGLTARPSPHRIARLVAGARAIFPHLPEPTRSWMGFRPSMPDSLPVIGPSAAGPEILHAYGHGHIGLTLAPITARIVADLLDAKTPELDIAPYLPTRFLEHHHHHH | not soluble
SLTNITQCKNRRCGGELGDFTGYIESPNYPGNYPANTECTWTINPPPKRRILIVVPEIFLPIEDDCGDYLVMRKTSSSNSVTTYETCQTYERPIAFTSRSKKLWIQFKSNEGNSARGFQVPYVTYDEDYQELIEDIVRDGRLYASENHQEILKDKKLIKALFDVLAHPQNYFKYTAQESREMFPRSFIRLLRSKVSRFLRPYK | soluble
MEDEVFVFTPKGDLFKLAKGATVLDFAFHIHSKLGCKCIGAKVNGKNVQLKQKLNSGDQVEIMTSNTQTPKQDWLEHHHHHH | not soluble
MGHHHHHHSHMRDCCGMVSSGSLSSLKAAERTPGALFFSSSTPGRYYNYDSSSRPQSRSVMSDQCAGQWFLKACGLGEGDTEVFPTQHVVRALQTIFELNVQAFAGGAMGAVNGMQPHGVPDKSSVQSDEVWVGVVYGLAATMIQEVMHSFSHLSTICILAQKTSSTTKFLQGITQCHLVRL | not soluble
MTAPHDVPDLTGSGEYLVPDVLQPGLTLVLVGTAPSGISARARAYYANPENKFWRTLHAVGLTPRQLVPQEYATLPQYGLGLTDVAKRHSGVDAALPGEAWRPDELRRKVEHYRPRIVAFTSKRGASETLGVPTGKLPYGPQPQPLDWPAETELWVLPSTSPLGHNHFRLEPWQALGDRVRELRGAAEAGNPSPETPVL | soluble
LKDFRYGIRLTGTTIKNEVISLGGKRIASGDIGAGKSVQMTEEGKPIKYFYGYNVIGIFQNEAQIKDYNERAAAATGNAGQQYQNNVGPGDLIYEDVDGDGYITANDRKDLGSPTPKFIGGLGISAFWKGFDLSIDFQGNFGNKIFNAKQVERFSGSDNWDRSFLDRWTPENPNTMTPRMTLEGNNYQVSSRYVESGSYVKLQTVELGYTFPKSWMQKVSVQNLRVYFSGNNLAYFTGYNGFTPEVLGGIDRQIYPVTATCRFGLNVTF | not soluble
MGSDKIHHHHHHMSLSRIHGDDDAFGARLDFAVNVAEAQPPTWLIQRLQSAVTDLAAYPHSSDLAAVTAMIARYHGVSEDHVLVLSGVSEGFAMLPQLKPENAVIIHPGFSEPDIVLTDAQIPVHRCILAPPFELSFENIPANADLVVIGNPTNPTGVVHSKELLAQLCAPGRTVVIDEAFLDIVGEQYSMIDQLDAVEGELIIFRSLTKTWSIAGLRVGYAIARPETLARLSAYRRHWPMGTLQLRAIEAVFDTGIMQLPERRAEMIAQRTEMIEMLTNSGFRCVSSSQAPYILVRPPSTQPEELRMALKAQGIAVRRCDTFPGLEFSYWRLAVRPRDQVQRLLTAIDNIIGAKK | not soluble
MEELNKYKQEIKDNALKELDSTKKKINEEKKHWGDLPLTYMPISNGTMTREYAETEQFYSHVVNVKNILDSLFEEVENDIKRLDAIFCFNEYTVYGQEDIEQIKENIKNEYKTSVAHFSKLWEDIKAMSVLLRSCFNKTWDRHSEVTLLTVIQTLDESIKHRGGPNYDKNNDNFFLLRECGSALRECNTQIKMDEKNLIIRIINTKDLEGGFKKSLETLLNENESANFIKLLAEYLEGVNLNVDVQVLKENFFIFAQGIKQFYLNNVETLKD | not soluble
MASRGLDLWLDEHVWKRKQEIGVKGENLLLPDLWLDFLQLSPIFQRKLAAVIACVRRLRTQATVYPEEDMCMAWARFCDPSDIKVVILGQDPYHGGQANGLAFSVAYGFPVPPSLRNIYAELHRSLPEFSPPDHGCLDAWASQGVLLLNTILTVQKGKPGSHADIGWAWFTDHVISLLSERLKACVFMLWGAKAGDKASLINSKKHLVLTSQHPSPLAQNSTRKSAQQKFLGNNHFVLANNFLREKGLGEIDWRL | soluble
KVTNRHFQDVPALEVVTTTHLDQPLPLVIFYHGWQSNKELVLTQARKLARKNLRVVLPDAMNHGERHQIVSQIPSFTFWNSIQGNLGEFELIVNYYRERKLILNEQIGVGGYSMGGMTTGALLTHHPEIKAATIIMGTPNLNAYAQLVRKHAQAHAYYIPSDLALLTSWLDHYDLNLQPETINHRPLLFWHGTEDERIPYSQSRNFFDRVHTAPYAEQVAFITGYQAKHLVKVPLMNKVANFFDYYLN | not soluble
SMTLTLNRQLLTSRQILVAFSGGLDSTVLLHQLVQWRTENPGVALRAIHVHHGLSANADAWVTHCENVCQQWQVPLVVERVQLAQEGLGIEAQARQARYQAFARTLLPGEVLVTAQHLDDQCETFLLALKRGSGPAGLSAMAEVSEFAGTRLIRPLLARTRGELVQWARQYDLRWIEDESNQDDSYDRNFLRLRVVPLLQQRWPHFAEATARSAALCAEQESLLDELLADDLAHCQSPQGTLQIVPMLAMSDARRAAIIRRWLAGQNAPMPSRDALVRIWQEVALAREDASPCLRLGAFEIRRYQSQLWWIKSVTGQSENIVPWQTWLQPLELPAGLGSVQLNAGGDIRPPRADEAVSVRFKAPGLLHIVGRNGGRKLKKIWQELGVPPWLRDTTPLLFYGETLIAAAGVFVTQEGVAEGENGVSFVWQKTLS | soluble
MAGNFDSEERSSWYWGRLSRQEAVALLQGQRHGVFLVRDSSTSPGDYVLSVSENSRVSHYIINSSGPRPPVPPSPAQPPPGVSPSRLRIGDQEFDSLPALLEFYKIHYLDTTTLIEPVSRSRQGSGVILRQEEAEYVRALFDFNGNDEEDLPFKKGDILRIRDKPEEQWWNAEDSEGKRGMIPVPYVEKYRPASASVSALIGGNQEGSHPQPLGGPEPGPYAQPSVNTPLPNLQNGPIYARVIQKRVPNAYDKTALALEVGELVKVTKINVSGQWEGECNGKRGHFPFTHVRLLDQQNPEEDFS | soluble
